Patent US20060234942 (published 2006)

T1: angiotensin I converting enzyme (ACE) (UniProt P12821)
T1 chain: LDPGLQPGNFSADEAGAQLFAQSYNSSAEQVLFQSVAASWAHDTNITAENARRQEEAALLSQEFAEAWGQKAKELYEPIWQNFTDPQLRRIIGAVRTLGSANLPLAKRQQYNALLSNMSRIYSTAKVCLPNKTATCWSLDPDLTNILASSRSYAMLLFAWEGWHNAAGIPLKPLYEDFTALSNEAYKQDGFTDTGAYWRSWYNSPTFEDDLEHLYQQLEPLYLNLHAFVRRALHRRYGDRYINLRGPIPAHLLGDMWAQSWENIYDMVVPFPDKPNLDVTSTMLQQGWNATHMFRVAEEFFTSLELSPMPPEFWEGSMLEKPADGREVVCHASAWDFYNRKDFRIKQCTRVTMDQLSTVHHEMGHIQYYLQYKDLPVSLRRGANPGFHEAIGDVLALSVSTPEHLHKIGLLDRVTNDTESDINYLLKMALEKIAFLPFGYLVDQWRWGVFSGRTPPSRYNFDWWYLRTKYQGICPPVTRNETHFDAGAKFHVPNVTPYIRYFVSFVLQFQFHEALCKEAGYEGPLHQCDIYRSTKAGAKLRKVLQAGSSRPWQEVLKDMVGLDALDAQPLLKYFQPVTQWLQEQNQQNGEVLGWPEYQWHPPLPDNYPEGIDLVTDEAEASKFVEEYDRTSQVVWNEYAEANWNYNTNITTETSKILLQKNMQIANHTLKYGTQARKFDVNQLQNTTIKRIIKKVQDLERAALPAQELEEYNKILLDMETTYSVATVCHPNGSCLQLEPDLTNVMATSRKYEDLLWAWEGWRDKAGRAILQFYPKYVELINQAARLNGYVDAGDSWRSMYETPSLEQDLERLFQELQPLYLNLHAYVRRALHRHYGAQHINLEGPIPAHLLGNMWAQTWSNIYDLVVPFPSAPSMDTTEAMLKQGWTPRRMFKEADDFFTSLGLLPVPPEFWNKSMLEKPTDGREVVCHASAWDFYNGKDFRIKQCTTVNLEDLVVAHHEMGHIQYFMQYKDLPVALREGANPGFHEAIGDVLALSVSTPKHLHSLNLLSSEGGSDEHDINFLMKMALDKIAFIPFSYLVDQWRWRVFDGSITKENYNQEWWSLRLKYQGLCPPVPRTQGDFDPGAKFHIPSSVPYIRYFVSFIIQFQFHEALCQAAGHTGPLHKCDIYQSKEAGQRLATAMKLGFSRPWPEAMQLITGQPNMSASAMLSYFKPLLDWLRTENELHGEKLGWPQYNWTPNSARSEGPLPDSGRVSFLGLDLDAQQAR


Molecular target: T1, angiotensin I converting enzyme (ACE)
Assay: other, ACE inhibition

IC50 [µM] | Binder
26.4 | ALNEINQFYQK [ALNEINQFYQK (CNαS2-(f81-91))]
14 | FPQYLQY [FPQYLQY (CNαS2-(f92-98))]
60 | NMAINPSK [NMAINPSK (CNαS2-(f25-32))]
15 | TVY [TVY (CNαS2-(f182-184))]
4.3 | FALPQYLK [FALPQYLK (CNαS2-(f174-181))]
219 | ALNEINQFY [ALNEINQFY (CNαS2-(f81-89))]
4.3 | FALPQY [FALPQY (CNαS2-(f174-179))]
